# Positions count from the first letter of the chain named.
# T1: human CD105 (endoglin), R&D Systems Cat. No. 1097-EN (human, UniProt P17813 26-586)
# T1 construct: Bought protein, captured on the plate by mouse anti-human CD105 (Southern Biotechnologies 9811-01); also called human endoglin
# T1 sequence (looked up): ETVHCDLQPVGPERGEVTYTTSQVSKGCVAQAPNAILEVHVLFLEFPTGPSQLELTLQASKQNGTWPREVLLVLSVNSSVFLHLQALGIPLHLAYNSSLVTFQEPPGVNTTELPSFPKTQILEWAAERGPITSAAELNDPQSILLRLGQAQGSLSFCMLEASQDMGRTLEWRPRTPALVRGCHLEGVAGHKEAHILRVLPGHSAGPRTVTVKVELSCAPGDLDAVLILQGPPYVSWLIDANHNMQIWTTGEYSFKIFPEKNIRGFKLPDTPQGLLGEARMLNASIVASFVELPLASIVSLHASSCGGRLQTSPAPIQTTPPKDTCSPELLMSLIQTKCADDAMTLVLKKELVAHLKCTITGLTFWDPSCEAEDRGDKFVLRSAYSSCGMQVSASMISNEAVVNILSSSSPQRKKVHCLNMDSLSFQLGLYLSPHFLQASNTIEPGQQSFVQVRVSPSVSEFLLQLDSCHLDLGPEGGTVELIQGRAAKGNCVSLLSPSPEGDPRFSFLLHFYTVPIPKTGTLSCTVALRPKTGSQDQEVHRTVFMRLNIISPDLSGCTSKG
# T2: recombinant endoglin (BIAcore analyte, Example 2) (UniProt P17813 26-586, limits assumed)
# T2 sequence (looked up): T1 sequence (looked up)
# T3: mouse endoglin, R&D Systems Cat. No. 1320-EN-025 (mouse, UniProt Q63961 27-581)
# T3 construct: Coated directly on the plate at 1 ug/ml; also called murine endoglin
# T3 sequence (looked up): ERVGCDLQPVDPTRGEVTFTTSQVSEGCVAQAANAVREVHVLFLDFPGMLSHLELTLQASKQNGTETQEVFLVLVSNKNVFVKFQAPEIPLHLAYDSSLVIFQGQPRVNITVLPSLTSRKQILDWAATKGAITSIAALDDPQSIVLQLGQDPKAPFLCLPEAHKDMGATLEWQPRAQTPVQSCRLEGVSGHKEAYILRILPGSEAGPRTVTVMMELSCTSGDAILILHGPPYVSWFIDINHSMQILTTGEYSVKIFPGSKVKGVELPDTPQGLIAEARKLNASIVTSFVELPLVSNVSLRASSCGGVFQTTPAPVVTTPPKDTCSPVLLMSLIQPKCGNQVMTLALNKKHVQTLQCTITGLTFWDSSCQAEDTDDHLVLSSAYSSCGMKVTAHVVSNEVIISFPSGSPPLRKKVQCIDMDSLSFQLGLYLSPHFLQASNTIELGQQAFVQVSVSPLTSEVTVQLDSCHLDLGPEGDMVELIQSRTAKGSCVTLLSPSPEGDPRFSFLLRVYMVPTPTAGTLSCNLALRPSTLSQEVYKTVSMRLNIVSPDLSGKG
# B1: TRC205 antibody (antibody, IgG4, V domains shown)
# VH: EVQLVESGGGLVKPGGSLRLSCAASGFTFSDAWMDWVRQAPGKGLEWVGEARSKASNHATYYAESVKGRFTISRDDSKNTLYLQMNSLKTEDTAVYYCTRWRRFFDSWGQGTLVTVSS
# VL: DIQMTQSPSSLSASVGDRATITCRASSSVSYMHWYQQKPGKAPKPWAYATSNLASGVPSRFSGSGSGTDYTLTISSLQPEDFATYYCQQWSSNPLTFGGGTKVEIK
# notes: Humanized and deimmunized IgG4; also called biotinylated TRC205; unlabelled TRC205
# B2: VK2SAVH1S (antibody, V domains shown)
# VH: B1 VH with G49S, A51I
# VL: B1 VL with M4L, A19V, T22S
# notes: humanized/deimmunized anti-endoglin antibody variant
# B3: VK2SSVH1Q (antibody, V domains shown)
# VH: B1 VH with A51I, K54Q
# VL: B1 VL with M4L, A19V, T22S, A47I, T50S
# notes: as for B2
# B4: VK2SSVH1S (antibody, V domains shown)
# VH: B1 VH with G49S, A51I
# VL: B1 VL with M4L, A19V, T22S, A47I, T50S
# notes: as for B2
# B5: humanized/deimmunized anti-endoglin antibody VK1AAVH1R (antibody, human IgG1, V domains shown)
# VH: B1 VH with A51I, K54R
# VL: B1 VL
# B6: humanized/deimmunized anti-endoglin antibody VK1AAVH1A2 (antibody, V domains shown)
# VH: B1 VH
# VL: B1 VL
# notes: It has the same variable domains as TRC205, which is IgG4
# B7: humanized/deimmunized anti-endoglin antibody VK1AAVH1Q (antibody, human IgG1, V domains shown)
# VH: B1 VH with A51I, K54Q
# VL: B1 VL
# B8: M1043 antibody (antibody, rat IgG1, V domains shown)
# VH: QVQLQQSGAELVKPGSSVKISCKASGYTFTSYDMHWIKQQPGNGLEWIGWIYPGNGNTKYNQKFNGKATLTADKSSSTAYMQLSSLTSEDSAVYFCARGKFGVGDYWGQGVMVTVSS
# VL: DTVLTQSPALAVSPGERVSISCRASEGVNSYMHWYQQKPGQQPKLLIYIASNLASGVPARFSGSGSGTDFTLTIDPVEADDTATYFCQQSWNDPYTFGAGTKLELKR
# notes: also called Antibody M1043; biotinylated M1043
# B9: mouse BMP9 (R&D Systems, Cat. No. 5566-BP-010) (ligand, UniProt Q9WV56 319-428, looked up)
# chain: STGASSHCQKTSLRVNFEDIGWDSWIIAPKEYDAYECKGGCFFPLADDVTPTKHAIVQTLVHLKFPTKVGKACCVPTKLSPISILYKDDMGVPTLKYHYEGMSVAECGCR
# B10: human BMP9 (R&D Systems Cat. No. 3209-BP-010) (ligand, UniProt Q9UK05 320-429, looked up)
# chain: B9 chain with T2A, S5G, D33E, I84V
# B11: chimeric anti-endoglin antibody (TRC105) (antibody, V domains shown)
# VH: EVKLEESGGGLVQPGGSMKLSCAASGFTFSDAWMDWVRQSPEKGLEWVAEIRSKASNHATYYAESVKGRFTISRDDSKSSVYLQMNSLRAEDTGIYYCTRWRRFFDSWGQGTTLTVSS
# VL: QIVLSQSPAILSASPGEKVTMTCRASSSVSYMHWYQQKPGSSPKPWIYATSNLASGVPVRFSGSGSGTSYSLTISRVEAEDAATYYCQQWSSNPLTFGAGTKLELK
# notes: also called chimeric anti-CD105; c-SN6j
# Assays:
# [1] = molecular target: T1, human CD105 (endoglin), R&D Systems …; experiment: direct ELISA, biotinylated TRC205 on human CD105 captured by anti-CD105, streptavidin-HRP detection
# Method: (§1) OD450 nm values were measured on a Dynex MRX TCII plate reader.
# [2] = molecular target: T1, human CD105 (endoglin), R&D Systems …; experiment: competition ELISA on captured human CD105, unlabelled TRC205 against biotinylated TRC205 (55 ng/ml); unlabelled TRC205 as competitor, in nM
# Method: as §1
# [3] = molecular target: T1, human CD105 (endoglin), R&D Systems …; experiment: competition ELISA on captured human CD105 against biotinylated chimeric anti-CD105 (6.25 ng/ml); streptavidin-HRP/TMB, absorbance at 450 nm
# Method: FIGS. 6A-6F. Anti-CD105 competition ELISA with humanized and humanized/deimmunized antibodies. […] Binding was detected via streptavidin-HRP and TMB substrate. Absorbance (OD) at 450 nm was measured on a plate reader and this was plotted against the test antibody concentration.
# as §1
# [4] = molecular target: T2, recombinant endoglin (BIAcore analyte, …); experiment: SPR (BIAcore), antibody captured on protein A, recombinant endoglin as analyte
# Method: Affinity of antibodies can be assessed using, for example, BIAcore analysis using standard protocols. Briefly, protein A is chemically coupled to a BIAcore CM5 chip, with the amount of protein A immobilized corresponding to 2000 RU. Subsequent steps are performed in a running buffer of 10 mM HEPES, 150 mM NaCl, 3 mM EDTA, 0.05% TWEEN, pH=7.4, at 25 degrees Celsius using a 10 Hz data collection rate. […] Start-up cycles are performed using running buffer at a flow rate of 40 μL/min, a contact time of 90 seconds and a dissociation time of 90 seconds. Sample cycles are performed using recombinant endoglin at concentrations ranging from 0 to 40 nM. Endoglin is passed over the BIAcore chip containing captured antibody at a flow rate of 40 μL/min with a contact time of 525 seconds and dissociation time of 2500 seconds. […] Regeneration of the chip is accomplished using 10 mM glycine pH=1.7. Data analysis is performed using BIAcore T100 Evaluation Software v1.1 Signals generated using BIAcore chips with different captured antibody densities are compared and data generated in the absence of recombinant endoglin are used to adjust for the intraassay blank signal. For fitting of the data, the Rₘₐₓ is allowed to float to account for variation in capture levels of each antibody in each cycle. Data from each capture density is fitted simultaneously during analysis of each antibody.
# [5] = molecular target: T3, mouse endoglin, R&D Systems Cat. No. …; experiment: direct ELISA on coated mouse endoglin, anti-rat IgG peroxidase detection
# Method: The following day the plate was washed three times with PBST before blocking with PBST/3% Marvel at room temperature for 1 hour. […] Binding of the antibodies was detected via anti-rat IgG peroxidase (Sigma, Cat. No. A9037) and TMB single solution substrate (Invitrogen, Cat. No. 00-2023). The reaction was stopped by adding 3 M HCl and OD450 nm values were measured on a Dynex MRX TCII plate reader.
# [6] = molecular target: T3, mouse endoglin, R&D Systems Cat. No. …; experiment: competition ELISA on coated mouse endoglin, competitor biotinylated M1043 (40 ng/ml)
# Method: Nunc Immuno MaxiSorp 96 well flat bottom plates (Fisher Cat. No. DIS-971-030J) were coated with mouse endoglin (R&D Systems, Cat. No. 1320-EN-025) at 1μg/ml in PBS overnight at 4° C. The following day the plate was washed three times with PBST before blocking with PBST/3% Marvel at room temperature for 1 hour. […] Binding of the biotinylated antibody was detected via streptavidin-HRP (Sigma, Cat. No. 55512) and TMB substrate (Sigma, Cat. No. T0440). OD450 nm values were measured on a Dynex MRX TCII plate reader.
# [7] = molecular target: T1, human CD105 (endoglin), R&D Systems …; experiment: competition ELISA on captured human CD105, human BMP9 against biotinylated TRC205 (55 ng/ml); human BMP9 as competitor, in nM
# Method: as §1
Binder,Kd [4],koff [4],kon [4],further results
B1,–,–,–,EC50 [1]: 0.046 mg/L; IC50 [2]: 1.7 nM
B2,–,–,–,binding result [3]: binds
B3,–,–,–,binding result [3]: binds
B4,–,–,–,binding result [3]: binds
B5,0.533 nM,3.41e-05 s⁻¹,64000 M⁻¹ s⁻¹,–
B6,0.706 nM,3.25e-05 s⁻¹,46000 M⁻¹ s⁻¹,–
B7,0.85 nM,3.03e-05 s⁻¹,35600 M⁻¹ s⁻¹,–
B8,–,–,–,binding result [5]: binds
B9,–,–,–,binding result [6]: binds
B10,–,–,–,IC50 [7]: 14.6 nM
B11,0.6 nM,3.28e-05 s⁻¹,54700 M⁻¹ s⁻¹,–
